The text below walks through data of PMC2942843.

The target of the data set is T1, CbbR (His6-CbbR) (Acidithiobacillus ferrooxidans ATCC 23270) (UniProt B7JB31).
T1 sequence: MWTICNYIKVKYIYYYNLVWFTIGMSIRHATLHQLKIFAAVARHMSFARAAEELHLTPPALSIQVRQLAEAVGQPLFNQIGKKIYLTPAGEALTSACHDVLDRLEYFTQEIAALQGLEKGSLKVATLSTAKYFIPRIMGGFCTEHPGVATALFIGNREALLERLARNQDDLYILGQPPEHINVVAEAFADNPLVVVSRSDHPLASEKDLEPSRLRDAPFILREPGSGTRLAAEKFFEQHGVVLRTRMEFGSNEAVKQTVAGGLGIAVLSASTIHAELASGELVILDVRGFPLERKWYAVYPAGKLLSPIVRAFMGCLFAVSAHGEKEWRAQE
Put plainly: EMSA. The note with it: 12 mM HEPES-NaOH pH 7.9, 4 mM Tris-HCl pH 7.9, 1 mM EDTA, 60 mM KCl, 1 mM DTT, 10% glycerol, 5 ug/ul BSA, 2 ug/ul poly(dI-dC), 30 C, 15 min, 20 pmol DNA. Background: A gel shift assay detects complexes by their altered migration in electrophoresis.
As for “ACGACGGCGGCAAGCACCGCCAACCACCGAACATCAGACGCGTAGTCACAAACCACCATCACATCAGTGATACGTTATTGAAAAAATAATAACTACTTATTAGCGCTTATGATTCACCCGCACTATAGTTCGATCATCGCTGCAGACGCAGCGATTGCGCCGGGGGCACCGGCGTCGGGCAACTGCATGGAGGTGGCATATGGCCGTCAAGACCTATAACGCGGGTGTGAAGGATTACCGG (double strand) [Pcbb2 (cbb2 operon promoter region)]”, the binding result was “binds”.

In the case of “CATTGAACAGGGTCAGCTCCTGGCCATGGCGGGCGCGCAACACCTTGAGCAGATGATGGCTGGCACCTGCCGGCAGCAAAAAGGGGCCGCTTTCGGGCAGGTCGGAATCGGCGTATAAGTGAATGCGCGGCATAGGTTACGATATCGGGCAGGAGAACACAGGTGGGATTATATCATCGTGGCGCTGGCGCAGGTGGCGCATGATCAAAGACTCCGAT (double strand) [Pcbb3 (cbb3 operon promoter region)]”, the binding entry is on record as “binds”.

As to “CGGCAGCGAAGATCTTGAGTTGGTGCAAGGTTGCATGACGGATAGACATGCCAATAGTAAACCATACTAAATTATAATAGTAAATATATTTTACTTTTATATAGTTACAGATCGTCCACAATGCTACCCAAGCATTGGAACCTGGCAGGTGGCTCCAATCACCATCGTCTACCATGACACAAGGAGAGCAAGCATGGCCGTAAAAAAGTATGAGGCCGGAG (double strand) [Pcbb1 (cbb1 operon promoter region)]”, the binding result is listed as “binds”.

In the case of “TTTGGGGTGGCAGCAAGAAGTCCTCCTTTCCGGTAGTTGGCCCGGCGCGCTCTTGAGGCCGCACATCCGCCCCGCTTGAGCCAATTTTGCCTTTGCGGTGAGCGGGTTTCACTTCGCTTGTGGCGCTTTCCTTTGATATAGTGCGCGCTGTCCCTGTCGCGCTGCGACAGGTCGGCCTAGCTATTGAGGAGCCCAGTGCATGTCCAAAAGTCATCTTTTCACCTCTGAATCCGTTTCC (double strand) [Pcbb4 (cbb4 operon promoter region)]”, the binding result is “no binding”.
